Source: doi:10.1101/2025.01.28.635311 (bioRxiv, 2025)
Values belong to the molecule of their own block, whether it stands above or below them.

Tests used:
[1] = molecular target: bovine histone H1, labelled with NT-647-NHS dye (bovine) (UniProt P02253); assay: MST
[2] = molecular target: N-terminal cleavage product of SET (human, UniProt Q01105-2 17-175); assay: SEC

Sequence of bovine histone H1, labelled with NT-647-NHS dye (bovine) (P02253 whole entry): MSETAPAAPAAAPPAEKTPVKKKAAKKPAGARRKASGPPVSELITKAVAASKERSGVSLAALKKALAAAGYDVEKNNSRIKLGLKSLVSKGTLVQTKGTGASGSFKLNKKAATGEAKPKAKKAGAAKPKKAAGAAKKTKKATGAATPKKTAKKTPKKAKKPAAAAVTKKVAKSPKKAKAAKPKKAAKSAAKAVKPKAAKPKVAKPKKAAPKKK

Kd [1]: 3000 nM
Molecule: full-length SET (SET-FL, 2–277) (from UniProt Q01105-2 2-277) (natural protein)

Kd [1]: 3000 nM
Molecule: SET-FL after cleavage by legumain (cleaved SET-FL) (from UniProt Q01105-2 17-175; Q01105-2 176-277) (complex)

binding result [2]: binds
B1: C-terminal cleavage product of SET-FL (domain or fragment, human, UniProt Q01105-2 176-277, looked up)
chain: KASRKRQHEEPESFFTWFTDHSDAGADELGEVIKDDIWPNPLQYYLVPDMDDEEGEGEEDDDDDEEEEGLEDIDEEGDEDEGEEDEDDDEGEEGEEDEGEDD

binding result [2]: binds
B2: C-terminal cleavage product of SETΔC (domain or fragment, human, UniProt Q01105-2 176-225, looked up)
chain: KASRKRQHEEPESFFTWFTDHSDAGADELGEVIKDDIWPNPLQYYLVPDM
